Assay [1] concerns the target T1, NaPi2b 323-340 array peptide Ac-TSPSLCWTDGIQNWTMKN-amide (human).
T1 peptide: Ac-TSPSLCWTDGIQNWTMKN-NH2
The assay is described as follows: synthetic peptide membrane array, 1 ug/ml antibody. How it is done: For epitope mapping, membranes were incubated for 3 hours with 1 ug/ml primary antibody, followed by incubation with HRP-labeled goat anti-mouse polyclonal antibodies (Jackson ImmunoResearch Laboratories, West Grove, Pa.) for 2 hours. Bound antibody was visualized by chemiluminescence (Western Lightning Plus). For epitope mapping under reducing condition, membranes were incubated in 1 mM DTT for 1 hour at room temperature, and then washed extensively prior to antibody incubation.

The target of another assay is T2, murine NaPi2b protein (mouse, UniProt Q9DBP0 1-697).
T2 construct: also called the murine protein; murine counterpart
T2 sequence (looked up): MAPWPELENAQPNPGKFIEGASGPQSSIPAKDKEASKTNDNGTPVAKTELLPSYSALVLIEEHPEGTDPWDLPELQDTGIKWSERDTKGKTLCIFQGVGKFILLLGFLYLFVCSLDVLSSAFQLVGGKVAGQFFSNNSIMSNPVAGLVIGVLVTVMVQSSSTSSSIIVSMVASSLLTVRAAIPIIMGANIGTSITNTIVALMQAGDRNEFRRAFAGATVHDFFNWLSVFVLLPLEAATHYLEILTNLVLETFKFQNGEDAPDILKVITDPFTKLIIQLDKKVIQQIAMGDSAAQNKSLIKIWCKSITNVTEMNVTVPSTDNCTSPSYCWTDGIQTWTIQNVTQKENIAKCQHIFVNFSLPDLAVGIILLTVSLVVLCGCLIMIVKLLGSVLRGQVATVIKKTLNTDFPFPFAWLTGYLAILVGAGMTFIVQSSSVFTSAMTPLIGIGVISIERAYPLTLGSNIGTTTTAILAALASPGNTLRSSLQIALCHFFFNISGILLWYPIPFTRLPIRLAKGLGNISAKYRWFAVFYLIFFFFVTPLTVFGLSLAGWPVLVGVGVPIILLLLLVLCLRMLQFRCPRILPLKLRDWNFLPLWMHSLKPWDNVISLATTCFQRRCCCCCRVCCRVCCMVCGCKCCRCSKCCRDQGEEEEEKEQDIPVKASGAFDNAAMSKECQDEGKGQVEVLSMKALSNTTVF
The assay is described as follows: Western blot of mouse tissues (data not shown). Background: A western blot detects proteins with antibodies after separation by electrophoresis.

The target in assay [2] is T3, GST/NaPi2b-4L fusion protein (311-340aa) (human, UniProt O95436 311-340).
T3 construct: Expressed in E. coli; not shown: glutathione S-transferase (GST) tag of vector pGEX4T1
T3 chain (looked up): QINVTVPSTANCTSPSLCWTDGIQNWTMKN
The assay is described as follows: Western blot of truncated GST fusion proteins.

Assay [3] deals with T4, T330M variant 312-340 peptide (SLC34A p312-340 T330M) (human).
T4 construct: also called T330M P312-340 peptide
T4 peptide: SPSLCWMDGIQNWTM
The assay is described as follows: dot blot. From the text: Corut et al have studied and identified mutations in SLC34A2 that are predicted to cause pulmonary alveolar microlithiasis and are possibly also associated with testicular microlithiasis (Corut, A. et al (2006) AM J. Hum Genet. 79:650-656). While analyzing normal controls, Corut identified a novel variant c.989C-T (p. T330M), whereby threonine is replaced with methionine, substituting a polar residue with a non-polar residue. This is presumed to inactivate the SLC34A2 protein. This T330M mutation is located within the MX35 epitope peptide region of SLC34A2. […] While MX35, L2 and L3 antibodies bind p312-340 peptide SEQ ID NO: 8, none of these antibodies bind T330M P312-340 peptide by dot blot analysis.

For assay [4], the target named is T5, sodium-dependent phosphate transport protein 2b (NaPi2b, SLC34A2), human, endogenous (human, UniProt O95436 1-690).
T5 construct: whole, on cells; Naturally expressed, N-glycosylated membrane protein of human cancer cell lines (OVCAR-3, SK-RC-18 and others) and tissues; used on intact cells (MHA, flow cytometry), in cell or tissue lysates (Western blot, immunoprecipitation) and in tissue sections; also called MX35 antigen; NaPi2b/MX35
T5 sequence (looked up): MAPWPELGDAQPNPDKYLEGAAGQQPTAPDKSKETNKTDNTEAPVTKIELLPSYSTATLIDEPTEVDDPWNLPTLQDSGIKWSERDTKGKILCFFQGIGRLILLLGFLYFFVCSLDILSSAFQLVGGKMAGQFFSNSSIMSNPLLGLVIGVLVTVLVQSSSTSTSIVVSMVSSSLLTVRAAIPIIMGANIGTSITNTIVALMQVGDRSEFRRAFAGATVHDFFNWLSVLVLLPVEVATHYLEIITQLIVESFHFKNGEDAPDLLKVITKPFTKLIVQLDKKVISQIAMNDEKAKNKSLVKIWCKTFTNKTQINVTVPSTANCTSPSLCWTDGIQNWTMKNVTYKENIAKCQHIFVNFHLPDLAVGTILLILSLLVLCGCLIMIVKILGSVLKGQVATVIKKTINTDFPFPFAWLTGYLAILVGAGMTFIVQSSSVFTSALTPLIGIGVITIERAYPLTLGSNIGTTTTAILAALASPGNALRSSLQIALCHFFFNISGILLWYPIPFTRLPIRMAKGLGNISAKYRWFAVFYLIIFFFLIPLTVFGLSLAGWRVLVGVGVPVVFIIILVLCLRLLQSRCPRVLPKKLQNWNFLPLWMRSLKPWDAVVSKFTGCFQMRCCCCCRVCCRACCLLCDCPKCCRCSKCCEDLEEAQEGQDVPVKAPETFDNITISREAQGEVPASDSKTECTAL
The assay is described as follows: mixed hemadsorption assay (MHA) on SK-RC-33 renal cancer cells. The source says:
A panel of cancer cell lines was co-typed for SLC34A2 mRNA expression by RT-PCR and for cell surface expression of MX35 protein antigen in a mixed hemadsorption assay (MHA) using mAb MX35 as probe. In addition, cell lysates were probed by Western blot analysis for MX35 expression. A panel of cancer cell lines with known expression of MX35 antigen was included. Strong expression of SLC34A2 mRNA correlated with MX35 antigen cell surface expression in all cells analyzed (Table 1). No such correlation was found for the Zinc-finger protein 638 (data not shown).

The target in assay [5] is T6, synthetic 29mer peptide representing amino acids 312-340 of the NaPi2b protein (human).
T6 construct: no end modifications stated
T6 peptide: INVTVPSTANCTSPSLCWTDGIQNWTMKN
The assay can be described thus: peptide ELISA and dot blot. Background: An ELISA detects its analyte on a solid surface through an enzyme-linked reagent.

B1: Murine mAb MX35 (IgG1) (antibody, V domains shown)
VH: QVQLKQSGAELVKPGASVKMSCKASGYTFTGYNIHWVKQTPGQGLEWIGAIYPGNGDTSYKQKFRGKASLTADTSSSTVYMQLSSLTSEDSAVYYCARGETARATFAYWGQGTLVTVSA
VL: DIQMTQTTSSLPASLGDRVTISCSASQDIGNFLNWYQQKPDGTVKVLIYYTSSLYSGVPSRFSGSGSGTDYSLTISNLEPEDIATYYCQQYSKLPLTFGAGTKLELKR
notes: also called MX35 MAb; monoclonal antibody MX35
With B1, the binding result in assay [1] is on record as “binds”; with murine NaPi2b protein, “no binding”; in assay [2], “binds”; in assay [3], “no binding”; in assay [4], “binds”; in assay [5], “binds”.

(Values after US20140193417A1 (LUDWIG INSTITUTE FOR CANCER RESEARCH, published 2014).)
